# Literature values as cited in patent US9506909B2, “Homoarginine as a biomarker for the risk of mortality” (Synlab Medizinisches Versorgungszentrum Heidelberg GmbH, priority 2010, dated 2016).
# Tests used:
# [1] = storage for 48 hours at room temperature or at 40 Celsius
Molecule,in-vivo half-life (in vivo),concentration loss on storage [1],"in-vivo half-life, longer than that of BNP (printed as the difference to the half-life of BNP)"
"BNP: active natriuretic hormone, 32 amino acids, cleaved from proBNP",0.333 h,at least 20%,–
"NTproBNP: N-terminal pro peptide of proBNP, 76 amino acids, inactive counterpart of BNP (protein, UniProt P16860 27-102, looked up, NT-proBNP) NT-proBNP: HPLGSPGSASDLETSGLQEQRNHLQGKLSELQVEQTSLEPLQESPRPTGVWKSREVATEGIRGHRKMVLYTLRAPR",–,–,2 h
